Data on 15 molecules can be found in paper PMC5770965, “pKID Binds to KIX via an Unstructured Transition State with Nonnative Interactions” (Biophysical Journal, 2017).

What all share (settings): both partners purified
The target in assay [1] is T1, KIX domain of CBP (UniProt P45481 586-665). In words: stopped-flow fluorescence (association kinetics) + dissociation kinetics by competition; KdKin calculated as kdiss/kass,fast.
Assay [2] has as its target T1, KIX domain of CBP. In words: stopped-flow fluorescence (association kinetics); pseudo-first order conditions with KIX in excess over FITC-pKID; biphasic; kass,fast = gradient of the observed fast rate against KIX concentration.
Assay [3] concerns the target T1, KIX domain of CBP. The assay is described as follows: dissociation kinetics by competition; FITC-pKID displaced from KIX by unlabeled competitor cMybTAD; kdiss = asymptote of the observed dissociation rate against competitor concentration.
The target of assay [4] is T1, KIX domain of CBP. In words: fluorescence polarisation; equilibrium fluorescence anisotropy; KIX titrated into N-terminally FITC-labelled pKID peptide; biophysical buffer and conditions as in the accompanying article (ref. 42); KdEqub. On the technique in general: Polarisation of emitted light reports the rotation of a fluorescent probe.
Assay [5] deals with T1, KIX domain of CBP. The assay is described as follows: dissociation kinetics by competition; FITC-pKID displaced from KIX by unlabeled competitor cMybTAD; kdiss = asymptote of the observed dissociation rate against competitor concentration. The source holds these as a separate data set.
The target of assay [6] is T1, KIX domain of CBP. The assay is described as follows: stopped-flow fluorescence (association kinetics); pseudo-first order conditions with KIX in excess over FITC-pKID; biphasic; kass,fast = gradient of the observed fast rate against KIX concentration. This is another data set of the same source.
Assay [7] concerns the target T1, KIX domain of CBP. In words: fluorescence polarisation; equilibrium fluorescence anisotropy; KIX titrated into N-terminally FITC-labelled pKID peptide; biophysical buffer and conditions as in the accompanying article (ref. 42); KdEqub. The source holds these as a separate data set.
Assay [8] addresses T1, KIX domain of CBP. The assay is described as follows: stopped-flow fluorescence (association kinetics) + dissociation kinetics by competition; KdKin calculated as kdiss/kass,fast. This is another data set of the same source.
The target in assay [9] is T2, KIX domain of CBP (UniProt P45481 586-666).
T2 construct: PDB 1KDX is the cited pKID/KIX structure and need not have the same limits
T2 sequence (P45481 586-666): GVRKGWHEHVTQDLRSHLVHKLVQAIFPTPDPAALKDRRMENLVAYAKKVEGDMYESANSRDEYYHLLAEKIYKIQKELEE
In words: fluorescence polarisation; equilibrium fluorescence anisotropy of N-terminally FITC-labelled pKID peptides with KIX; buffer and conditions as in the accompanying article (ref. 42).

Non-standard residues stand in square brackets, D forms with d. No end group written: not given here. *: point of attachment. FITC = O=C1OC2(c3ccc(O)cc3Oc3cc(O)ccc32)c2ccc(NC(=S)*)cc21; pS = N[C@@H](COP(=O)(O)O)C(=O)O

T1 sequence (P45481 586-665): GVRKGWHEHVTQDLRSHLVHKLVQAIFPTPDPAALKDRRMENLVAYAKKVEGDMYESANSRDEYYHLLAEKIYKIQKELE

B1: FITC-pKID D140A (peptide, UniProt P15337-1 116-146, looked up)
peptide: {FITC}-DSVTDSQKRREILSRRP[pS]YRKILNALSSDAP
notes: source: synthetic peptide, bought: Biomatik
What is called Kd is the free concentration of one partner at which half of the binding sites on the other are occupied at equilibrium, for simple one-to-one binding. A word on the kon: it is the rate constant with which the complex forms. A low value points to slower complex formation. By koff is commonly meant the rate constant with which the complex falls apart. Take B1: the figures for the dissociation constant (Kd) with KIX domain of CBP [1] and with KIX domain of CBP [4] were 390 ± 50 nM and 260 nM, respectively. In the assay with KIX domain of CBP [2], this molecule displayed an on-rate (kon) of 5.3e+06 M⁻¹ s⁻¹. The off-rate constant (koff) in the assay with KIX domain of CBP [3] is 2.06 s⁻¹.

B2: FITC-pKID S142A (peptide, UniProt P15337-1 116-146, looked up)
peptide: {FITC}-DSVTDSQKRREILSRRP[pS]YRKILNDLASDAP
notes: as for B1
For the molecule B2, the dissociation constant Kd in the assay with KIX domain of CBP [1] was 70 ± 10 nM; in the assay with KIX domain of CBP [4] it was 120 nM. Besides, the kon with KIX domain of CBP [2] stood at 1.13e+07 M⁻¹ s⁻¹. Also, the dissociation rate constant (koff) in the assay with KIX domain of CBP [3] is 0.83 s⁻¹.

B3: FITC-pKID R131A (peptide, UniProt P15337-1 116-146, looked up)
peptide: {FITC}-DSVTDSQKRREILSRAP[pS]YRKILNDLSSDAP
notes: as for B1
Regarding B3, the values for the Kd with KIX domain of CBP [1] and with KIX domain of CBP [4] were 810 ± 140 nM and 1230 nM, respectively. In the assay with KIX domain of CBP [2], this molecule returned a kon of 9.5e+06 M⁻¹ s⁻¹. The molecule further gave an off-rate constant (koff) with KIX domain of CBP [3] of 7.66 s⁻¹.

B4: FITC-pKID R135G (peptide, UniProt P15337-1 116-146, looked up)
peptide: {FITC}-DSVTDSQKRREILSRRP[pS]YGKILNDLSSDAP
notes: also called A135G; source: synthetic peptide, bought: Biomatik
With B4, in the assay with KIX domain of CBP [5], the off-rate (koff) came to 10.1 s⁻¹. Besides, the kon with KIX domain of CBP [6] was 8e+06 M⁻¹ s⁻¹. In addition, the results for the Kd with KIX domain of CBP [7] and with KIX domain of CBP [8] were 1160 nM and 1260 ± 70 nM, respectively.

B5: FITC-pKID R124A (peptide, UniProt P15337-1 116-146, looked up)
peptide: {FITC}-DSVTDSQKAREILSRRP[pS]YRKILNDLSSDAP
notes: as for B1
Turning to B5, the figures for the Kd with KIX domain of CBP [1] and with KIX domain of CBP [4] were 60 ± 20 nM and 60 nM, respectively. The molecule further registered an on-rate (kon) with KIX domain of CBP [2] of 8.4e+06 M⁻¹ s⁻¹. The molecule also displayed a koff with KIX domain of CBP [3] of 0.51 s⁻¹.

B6: FITC-pKID R125A (peptide, UniProt P15337-1 116-146, looked up)
peptide: {FITC}-DSVTDSQKRAEILSRRP[pS]YRKILNDLSSDAP
notes: as for B1
Regarding B6, the Kd with KIX domain of CBP [1] is 340 ± 30 nM; with KIX domain of CBP [4] it was 220 nM. The molecule also had an on-rate constant (kon) with KIX domain of CBP [2] of 6.3e+06 M⁻¹ s⁻¹. The same molecule registered a koff with KIX domain of CBP [3] of 2.17 s⁻¹.

B7: FITC-pKID T119A (peptide, UniProt P15337-1 116-146, looked up)
peptide: {FITC}-DSVADSQKRREILSRRP[pS]YRKILNDLSSDAP
notes: as for B1
Molecule B7 came in with an off-rate constant (koff) with KIX domain of CBP [5] of 0.88 s⁻¹. Moreover, the kon with KIX domain of CBP [6] was 7.3e+06 M⁻¹ s⁻¹. In addition, the Kd is 150 nM in the assay with KIX domain of CBP [7] and 120 ± 10 nM with KIX domain of CBP [8].

B8: FITC-pKID L138A (peptide, UniProt P15337-1 116-146, looked up)
peptide: {FITC}-DSVTDSQKRREILSRRP[pS]YRKIANDLSSDAP
notes: as for B1
On to B8, for which the Kd is 4730 ± 1920 nM with KIX domain of CBP [1] and 6300 nM in the assay with KIX domain of CBP [4]. For the same molecule, the kon in the assay with KIX domain of CBP [2] turned out to be 2.8e+06 M⁻¹ s⁻¹. Besides, the dissociation rate constant (koff) with KIX domain of CBP [3] came to 13.2 s⁻¹.

B9: FITC-pKID E126A (peptide, UniProt P15337-1 116-146, looked up)
peptide: {FITC}-DSVTDSQKRRAILSRRP[pS]YRKILNDLSSDAP
notes: as for B1
Turning to B9, the off-rate constant (koff) with KIX domain of CBP [5] turned out to be 0.97 s⁻¹. This molecule also came in with an on-rate constant (kon) with KIX domain of CBP [6] of 1.05e+07 M⁻¹ s⁻¹. Besides, the dissociation constant Kd is 170 nM with KIX domain of CBP [7] and 90 ± 10 nM in the assay with KIX domain of CBP [8].

B10: FITC-pKID I137A (peptide, UniProt P15337-1 116-146, looked up)
peptide: {FITC}-DSVTDSQKRREILSRRP[pS]YRKALNDLSSDAP
notes: as for B1
On to B10, for which the Kd with KIX domain of CBP [1] was 9730 ± 1920 nM; with KIX domain of CBP [4], 21600 nM. This molecule gave a kon with KIX domain of CBP [2] of 4.5e+06 M⁻¹ s⁻¹. Also, the koff in the assay with KIX domain of CBP [3] was found to be 43.9 s⁻¹.

B11: FITC-pKID S143G (peptide, UniProt P15337-1 116-146, looked up)
peptide: {FITC}-DSVTDSQKRREILSRRP[pS]YRKILNDLSGDAP
notes: the text prints S143G; also called A143G; source: synthetic peptide, bought: Biomatik
The molecule B11 registered an off-rate constant (koff) in the assay with KIX domain of CBP [5] of 1.2 s⁻¹. In addition, the on-rate (kon) with KIX domain of CBP [6] is 6.3e+06 M⁻¹ s⁻¹. Further, the dissociation constant Kd with KIX domain of CBP [7] is 90 nM; with KIX domain of CBP [8] it was 190 ± 20 nM.

B12: FITC-pKID I137A (peptide, UniProt P15337-1 116-146, looked up)
peptide: {FITC}-DSVTDSQKRREILSRRP[pS]YRKALNDLSSDAP
notes: as for B1
As to B12, the “fold increase of Kd against wild type” value with KIX domain of CBP [9] was about 100 fold.

B13: FITC-pKID Y134A (peptide, UniProt P15337-1 116-146, looked up)
peptide: {FITC}-DSVTDSQKRREILSRRP[pS]ARKILNDLSSDAP
notes: as for B1
On to B13, for which the “fold increase of Kd against wild type” value with KIX domain of CBP [9] was about 1000 fold.

B14: FITC-pKID L138A (peptide, UniProt P15337-1 116-146, looked up)
peptide: {FITC}-DSVTDSQKRREILSRRP[pS]YRKIANDLSSDAP
notes: as for B1
As to B14, in the assay with KIX domain of CBP [9], the “fold increase of Kd against wild type” value was over 10 fold.

B15: FITC-pKID L128A (peptide, UniProt P15337-1 116-146, looked up)
peptide: {FITC}-DSVTDSQKRREIASRRP[pS]YRKILNDLSSDAP
notes: as for B1
As for B15, the “fold increase of Kd against wild type” value with KIX domain of CBP [9] was over 10 fold.
